Reference: patent US20100297623A1 (COUNCIL OF THE QUEENSLAND INSTITUTE OF MEDICAL RESEARCH, published 2010)

Molecular target: the molecule itself
Assay: gel filtration (self-association)

B1: human ssDNA binding protein 1 (hSSB1) (other)
chain: MTTETFVKDIKPGLKNLNLIFIVLETGRVTKTKDGHEVRTCKVADKTGSINISVWDDVGNLIQPGDIIRLTKGYASVFKGCLTLYTGRGGDLQKIGEFCMVYSEVPNFSEPNPEYSTQQAPNKAVQNDSNPSASQPTTGPSAASPASENQNGNGLSAPPGPGGGPHPPHTPSHPPSTRITRSQPNHTPAGPPGPSSNPVSNGKETRRSSKR
notes: also called human SSB1
B1: binds.
